The values below come from the Immune Epitope Database (IEDB).

pIC50, pKd: −log10 of the molar value.

In one test the target is HLA-A*24:02. The experiment in a line: IEDB peptide-MHC binding, purified MHC/competitive/fluorescence; ≥ and ≤ were set here for values at or beyond the usual limits of such assays.
A further test deals with HLA-B*08:01. The test is described as above.
The next test deals with HLA-A*68:02. Briefly: IEDB peptide-MHC binding, purified MHC/competitive/fluorescence; filed as Kd, often an IC50 or EC50 that approximates it; ≥ and ≤ were set here for values at or beyond the usual limits of such assays.
A further test concerns the target HLA-B*27:03. The description is as above.
The next test addresses HLA-B*15:17. The description is as above. Particulars: source organism: Cryptosporidium parvum Iowa II.
Test [1] addresses HLA-A*03:01. The description is as above.
Another test concerns the target HLA-B*51:01. Described as above.
For another test, the target named is HLA-A*24:03. The test is described as above.
For the next test, the target named is HLA-B*18:01. Described as above.
Test [2] addresses HLA-A*02:01. The description is as above.
A further test has as its target HLA-A*02:16. Described as above.
The target in another test is HLA-A*02:03. Described as above.
The next test concerns the target HLA-B*39:01. The test is described as above.
A further test concerns the target HLA-B*46:01. Described as above.
Test [3] concerns the target HLA-B*15:01. The description is as above.
A further test concerns the target HLA-B*57:01. The test is described as above.
The target in another test is HLA-A*02:19. The test is described as above.
A further test addresses HLA-A*26:01. The description is as above.
Another test has as its target HLA-A*29:02. Described as above.
The target in a further test is HLA-A*02:11. The description is as above.
The target in another test is HLA-A*02:12. The test is described as above.
The target of a further test is HLA-A*69:01. The test is described as above.
In test [4] the target is HLA-A*03:01. The experiment in a line: IEDB peptide-MHC binding, purified MHC/competitive/fluorescence; ≥ and ≤ were set here for values at or beyond the usual limits of such assays. To be noted: source organism: Zaire ebolavirus.
The target of test [5] is HLA-A*02:01. The test is described as above. Particulars: source organism: Zaire ebolavirus.
The target of the next test is HLA-A*11:01. Described as above. Particulars: source organism: Zaire ebolavirus.
Test [6] deals with HLA-B*15:01. The description is as above. To be noted: source organism: Zaire ebolavirus.
Another test addresses HLA-B*07:02. The test is described as above.
A further test concerns the target HLA-A*30:01. Briefly: IEDB peptide-MHC binding, purified MHC/competitive/radioactivity; filed as Kd, often an IC50 or EC50 that approximates it; ≥ and ≤ were set here for values at or beyond the usual limits of such assays. To be noted: source organism: Vaccinia virus WR.
The next test deals with HLA-B*40:01. Briefly: IEDB peptide-MHC binding, purified MHC/competitive/fluorescence; filed as Kd, often an IC50 or EC50 that approximates it; ≥ and ≤ were set here for values at or beyond the usual limits of such assays.
The next test addresses HLA-A*01:01. The test is described as above. Particulars: source organism: Human betaherpesvirus 7.
Another test has as its target HLA-A*31:01. Described as above. To be noted: source organism: Bacillus anthracis str. A0488.
[7] abbreviates: source organism: Cryptosporidium parvum Iowa II.
Where [8] appears, read: source organism: Listeria monocytogenes J0161.
Where [9] appears, read: source organism: Zaire ebolavirus.
[10] abbreviates: source organism: Burkholderia pseudomallei 91.
Setting [11] is: source organism: Vaccinia virus WR.
Where [12] appears, read: source organism: Human immunodeficiency virus 1.
The mark [13] stands for this setting: source organism: Escherichia coli E22.
Setting [14] is: source organism: Rickettsia sibirica 246.
Where [15] appears, read: source organism: Burkholderia vietnamiensis G4.
Where [16] appears, read: source organism: Bacillus anthracis str. A0488.

With IAVARKHHT, the pIC50 in the test with HLA-A*24:02 (source organism: Variola virus) is 4.31; in the test with HLA-B*08:01 (source organism: Variola virus), at most 4.04.

With KLYLRPWWH, the pKd is at most 4.70 with HLA-A*68:02 (setting [7]); at most 4.70 in the test with HLA-B*27:03 (setting [7]); at most 4.70 with HLA-B*15:17; 8.36 in the test with HLA-A*03:01 [1] (setting [7]); at most 4.70 with HLA-B*51:01 (setting [7]); at most 4.70 in the test with HLA-A*24:03 (setting [7]). The pKd in the test with HLA-B*18:01 (setting [7]), with HLA-A*02:01 [2] (setting [7]), with HLA-A*02:16 (setting [7]), with HLA-A*02:03 (setting [7]), with HLA-B*39:01 (setting [7]) and in the test with HLA-B*46:01 (setting [7]) was at most 4.70 each time. For the same sequence, the pKd with HLA-B*15:01 [3] (setting [7]) is at most 4.70; with HLA-B*57:01 (setting [7]), at most 4.70; in the test with HLA-A*02:19 (setting [7]), at most 4.70; with HLA-A*26:01 (setting [7]), at most 4.70; with HLA-A*29:02 (setting [7]), 6.17; with HLA-A*02:11 (setting [7]), at most 4.70. The pKd with HLA-A*02:12 (setting [7]) and with HLA-A*69:01 (setting [7]) was at most 4.70 each time.

On to YNAKRIETV, for which the pKd in the test with HLA-B*27:03 (setting [8]), in the test with HLA-A*03:01 [1] (setting [8]), in the test with HLA-B*51:01 (setting [8]), with HLA-A*24:03 (setting [8]), in the test with HLA-B*18:01 (setting [8]) and with HLA-A*02:01 [2] (setting [8]) was at most 4.70 each time. Besides, the pKd with HLA-A*02:03 (setting [8]), with HLA-B*39:01 (setting [8]), in the test with HLA-B*46:01 (setting [8]), with HLA-B*15:01 [3] (setting [8]), in the test with HLA-B*57:01 (setting [8]) and in the test with HLA-A*02:19 (setting [8]) was at most 4.70 throughout. The pKd in the test with HLA-A*26:01 (setting [8]) is at most 4.70; with HLA-A*29:02 (setting [8]), at most 4.70; in the test with HLA-A*02:11 (setting [8]), 6.62; in the test with HLA-A*02:12 (setting [8]) it was at most 4.70.

In the case of RFKRTSFFL, the pIC50 in the test with HLA-A*03:01 [4] was at most 3.30; with HLA-A*02:01 [5] it was at most 3.93; with HLA-B*08:01 (setting [9]) it was 4.58; with HLA-A*11:01 it was at most 3.41; with HLA-B*15:01 [6], 5.02; in the test with HLA-B*07:02 (setting [9]), at most 3.67.

In the case of RAYAAMHLW, the pKd with HLA-A*68:02 (setting [10]), with HLA-B*27:03 (setting [10]), with HLA-A*03:01 [1] (setting [10]), with HLA-A*02:01 [2] (setting [10]), with HLA-A*02:16 (setting [10]) and with HLA-A*02:03 (setting [10]) was at most 4.70 each time. For the same sequence, the pKd in the test with HLA-B*39:01 (setting [10]) is at most 4.70; with HLA-B*46:01 (setting [10]), at most 4.70; with HLA-B*57:01 (setting [10]), 6.51; with HLA-A*02:19 (setting [10]) it was at most 4.70; with HLA-A*26:01 (setting [10]), at most 4.70; with HLA-A*02:11 (setting [10]), at most 4.70. Further, the pKd in the test with HLA-A*02:12 (setting [10]) and with HLA-A*69:01 (setting [10]) was at most 4.70 in each case.

Consider LPKRSVMLI, for which the pIC50 with HLA-A*24:02 (setting [11]) is at most 4.03; with HLA-B*08:01 (setting [11]), 4.89; with HLA-B*07:02 (setting [11]), 5.19.

Take HFKPPKFRA: the pKd in the test with HLA-A*30:01 is 8.05. Moreover, in the test with HLA-B*08:01 (source organism: Vaccinia virus), the pIC50 is at most 3.82.

On to GLGQYIYET, for which the pKd with HLA-A*02:01 [2] (setting [12]) was 6.85; with HLA-A*02:16 (setting [12]) it was 9.09; with HLA-A*02:03 (setting [12]), 6.53; with HLA-A*02:19 (setting [12]) it was 6.60; in the test with HLA-A*02:11 (setting [12]) it was 7.49; in the test with HLA-A*02:12 (setting [12]), 7.41. The negative logarithm of the Kd (pKd) in the test with HLA-A*69:01 (setting [12]) was at most 4.70.

Regarding DEIAFGLKL, the pKd was 5.52 with HLA-B*40:01 (setting [13]) and at most 4.70 with HLA-B*15:01 [3] (setting [13]).

In the case of LSMFVTNKK, the pKd was 5.52 with HLA-A*01:01 and 7.20 with HLA-A*29:02 (source organism: Human betaherpesvirus 7).

YLKKLDDFY: the pKd in the test with HLA-A*68:02 (setting [14]), with HLA-B*27:03 (setting [14]), in the test with HLA-A*03:01 [1] (setting [14]), with HLA-B*51:01 (setting [14]), with HLA-A*24:03 (setting [14]) and in the test with HLA-B*18:01 (setting [14]) was at most 4.70 in each case. The pKd in the test with HLA-A*02:01 [2] (setting [14]), with HLA-A*02:16 (setting [14]), with HLA-B*39:01 (setting [14]), with HLA-B*46:01 (setting [14]), in the test with HLA-B*57:01 (setting [14]) and with HLA-A*02:19 (setting [14]) was at most 4.70 throughout. In addition, the pKd in the test with HLA-A*26:01 (setting [14]), with HLA-A*02:11 (setting [14]), with HLA-A*02:12 (setting [14]) and with HLA-A*69:01 (setting [14]) was at most 4.70 in each case.

Sequence IEIARTLTL gave a pKd with HLA-B*40:01 (source organism: Salmonella enterica subsp. enterica serovar Typhi) of 7.97.

Consider PLFKRGWRL, for which the pKd with HLA-B*27:03 (setting [15]) is at most 4.70; in the test with HLA-A*03:01 [1] (setting [15]) it was at most 4.70; with HLA-B*51:01 (setting [15]) it was at most 4.70; in the test with HLA-A*24:03 (setting [15]) it was at most 4.70; in the test with HLA-B*18:01 (setting [15]), at most 4.70; with HLA-A*02:01 [2] (setting [15]) it was 6.70. Moreover, the pKd in the test with HLA-B*39:01 (setting [15]), with HLA-B*46:01 (setting [15]), in the test with HLA-B*15:01 [3] (setting [15]), with HLA-B*57:01 (setting [15]), in the test with HLA-A*26:01 (setting [15]) and with HLA-A*29:02 (setting [15]) was at most 4.70 in each case. In addition, the pKd with HLA-A*02:11 (setting [15]) was 7.55.

FLKIKVTAA gave a pIC50 with HLA-B*08:01 (source organism: Vaccinia virus Copenhagen) of 4.81.

In the case of IQKGMFVVK, the pKd in the test with HLA-A*68:02 (setting [16]), with HLA-B*27:03 (setting [16]), with HLA-B*51:01 (setting [16]), with HLA-A*24:03 (setting [16]), with HLA-B*18:01 (setting [16]) and with HLA-A*02:01 [2] (setting [16]) was at most 4.70 throughout. Also, the pKd in the test with HLA-A*02:16 (setting [16]), in the test with HLA-A*02:03 (setting [16]), in the test with HLA-B*39:01 (setting [16]), with HLA-B*46:01 (setting [16]), in the test with HLA-B*57:01 (setting [16]) and in the test with HLA-A*02:19 (setting [16]) was at most 4.70 each time. Further, the pKd with HLA-A*26:01 (setting [16]) was at most 4.70; with HLA-A*02:11 (setting [16]) it was at most 4.70; in the test with HLA-A*31:01, 7.80; with HLA-A*02:12 (setting [16]) it was at most 4.70; with HLA-A*69:01 (setting [16]), at most 4.70.

In general, pIC50 refers to −log10 of the IC50, conventionally taken in molar units. Read a high pIC50 as a small IC50. A word on the pKd: it is −log10 of the Kd, conventionally taken in molar units.
